Measured values as given in IntAct's records for PubMed 16511572.

B1: Protein Mdm4 (Homo sapiens), O15151 (parent)
chain: MTSFSTSAQCSTSDSACRISPGQINQVRPKLPLLKILHAAGAQGEMFTVKEVMHYLGQYIMVKQLYDQQEQHMVYCGGDLLGELLGRQSFSVKDPSPLYDMLRKNLVTLATATTDAAQTLALAQDHSMDIPSQDQLKQSAEESSTSRKRTTEDDIPTLPTSEHKCIHSREDEDLIENLAQDETSRLDLGFEEWDVAGLPWWFLGNLRSNYTPRSNGSTDLQTNQDVGTAIVSDTTDDLWFLNESVSEQLGVGIKVEAADTEQTSEEVGKVSDKKVIEVGKNDDLEDSKSLSDDTDVEVTSEDEWQCTECKKFNSPSKRYCFRCWALRKDWYSDCSKLTHSLSTSDITAIPEKENEGNDVPDCRRTISAPVVRPKDAYIKKENSKLFDPCNSVEFLDLAHSSESQETISSMGEQLDNLSEQRTDTENMEDCQNLLKPCSLCEKRPRDGNIIHGRTGHLVTCFHCARRLKKAGASCPICKKEIQLVIKVFIA
partner: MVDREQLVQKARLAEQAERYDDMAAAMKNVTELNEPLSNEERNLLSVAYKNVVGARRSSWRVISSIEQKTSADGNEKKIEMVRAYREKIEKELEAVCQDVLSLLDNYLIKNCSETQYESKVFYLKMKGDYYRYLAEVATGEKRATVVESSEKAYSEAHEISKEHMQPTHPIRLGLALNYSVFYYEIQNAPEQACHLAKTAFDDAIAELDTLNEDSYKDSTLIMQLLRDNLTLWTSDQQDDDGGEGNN
B2: 14-3-3 protein gamma (Homo sapiens), P61981 (parent)
chain: B1 partner
partner: B1 chain

Variants of: B1
Conditions: with 1433g_human YWHAG

Variant | effect of a mutation on the interaction
MTSFSTSAQCSTSDSACRISPGQINQVRPKLPLLKILHAAGAQGEMFTVKEVMHYLGQYIMVKQLYDQQEQHMVYCGGDLLGELLGRQSFSVKDPSPLYDMLRKNLVTLATATTDAAQTLALAQDHSMDIPSQDQLKQSAEESSTSRKRTTEDDIPTLPTSEHKCIHSREDEDLIENLAQDETSRLDLGFEEWDVAGLPWWFLGNLRSNYTPRSNGSTDLQTNQDVGTAIVSDTTDDLWFLNESVSEQLGVGIKVEAADTEQTSEEVGKVSDKKVIEVGKNDDLEDSKSLSDDTDVEVTSEDEWQCTECKKFNSPSKRYCFRCWALRKDWYSDCSKLTHSLSTSDITAIPEKENEGNDVPDCRRTIGAPVVRPKDAYIKKENSKLFDPCNSVEFLDLAHSSESQETISSMGEQLDNLSEQRTDTENMEDCQNLLKPCSLCEKRPRDGNIIHGRTGHLVTCFHCARRLKKAGASCPICKKEIQLVIKVFIA [S367G] | disrupting interaction
P369G | disrupting interaction

Variants of: B2
Conditions: with mdm4_human MDM4, O15151

Variant | effect of a mutation on the interaction
MVDREQLVQKARLAEQAERYDDMAAAMKNVTELNEPLSNEERNLLSVAYENVVGARRSSWRVISSIEQKTSADGNEKKIEMVRAYREKIEKELEAVCQDVLSLLDNYLIKNCSETQYESKVFYLKMKGDYYRYLAEVATGEKRATVVESSEKAYSEAHEISKEHMQPTHPIRLGLALNYSVFYYEIQNAPEQACHLAKTAFDDAIAELDTLNEDSYKDSTLIMQLLRDNLTLWTSDQQDDDGGEGNN [K50E] | disrupting interaction
